PMC5553682

Biological target: GFP-Cav3.1 pore mutant (human)
Assay: FRET or BRET; live tsA-201 cells also expressing Kir2.1, exposed to high [K]o (50 mM); % change of the mKate:GFP ratio against time 0; the decrease was prevented by TTA-P2, mibefradil + Ni2+ or BAPTA-AM

% change of FRET (mKate:GFP ratio) in high [K]o: 4.55%
Substance: mKate-CaM (from UniProt P0DP23 1-149) (natural protein)
